≈ marks a conversion by molar mass, not a printed value.
Experiments:
Type in all cases: cell-based, Staphylococcus aureus
S. aureus strain MW2 = test: MIC of parental strain
Experimental: (§1) An ex vivo analysis was performed on tissue samples recovered after PlySs2 treatment in a standard rabbit model of MRSA infective endocarditis (IE), as disclosed in Xiong et al., Comparative efficacy of telavancin and daptomycin in experimental endocarditis due to multi-clonotype MRSA strains, J. ANTIMIC. CHEMO. (2016); 71(1):2890-94. The standard rabbit IE model was used to confirm the impact of PlySs2 treatment on oxacillin MICs. Four days after treatment with a single-dose of PlySs2 (0.18 mg/kg to 1.4 mg/kg) in the IE model, isolates were recovered from valvular vegetations and plated on TSAB (non-selective condition, Tables 3 and 4) and TSAB supplemented with PlySs2 over a range of concentrations (selective conditions, Tables 5 and 6). MIC values of the MRSA isolates were determined for both PlySs2 and oxacillin. Tables 3 and 4 below show the MICs calculated for PlySs2 and oxacillin, respectively, for valvular vegetations subject to the non-selective conditions.

[1] = test system: MRSA isolates from valvular vegetations; test: MIC values of MRSA isolates recovered from valvular vegetations after PlySs2 treatment (ex vivo)
Experimental: as §1

[2] = test system: MRSA MW2 mutant and control isolates from valvular vegetations; test: MICs of mutant and control isolates from the rabbit IE study
Description: The PlySs2 and oxacillin MICs of each mutant and control strain are shown below in Tables 7 and 8, wherein + indicates the presence of the mutation and—indicates an absence of the mutation.

MRSA strain MW2 = test: 21-day in vitro serial passage resistance assay
Description: Serial passage resistance studies were undertaken to assess the ability of PlySs2 lysin to suppress the emergence of antibiotic resistance when used in combination with oxacillin used to treat S. aureus infections. Methods used to perform serial passage experiments are described in Palmer et al., Genetic basis for daptomycin resistance in enterococci, ANTIMICROBIAL AGENTS AND CHEMOTHERAPY (2011); 55:3345-56 and Berti et al., Altering the Proclivity towards Daptomycin Resistance in Methicillin-Resistant Staphylococcus aureus Using Combinations with Other Antibiotics, ANTIMICROBIAL AGENTS AND CHEMOTHERAPY (2012); 56:5046-53, respectively.
21-day in vitro serial passage resistance assays were performed to determine the impact of PlySs2 (alone) on oxacillin and PlySs2 MIC values and the potential for a “seesaw” effect similar to that previously shown, whereby exposures to daptomycin or vancomycin were accompanied by increased susceptibility (and the potential for resensitization) to β-lactam antibiotics [Renzoni et al., Molecular Bases Determining Daptomycin Resistance-Mediated Resensitizatoin to β-Lactams (Seesaw Effect) in Methicillin-Resistant Staphylococcus aureus, ANTIMICROBIAL AGENTS AND CHEMOTHERAPY (2017) 61(1):e01634-16 and Werth et al., Evaluation of Ceftaroline Activity against Heteroresistant Vancomycin-Intermediate Staphylococcus aureus and Vancomycin-Intermediate Methicillin-Resistant S. aureus Strains in an In Vitro Pharmacokinetic/Pharmacodynamic Model: Exploring the ‘Seesaw Effect’, ANTIMICROBIAL AGENTS AND CHEMOTHERAPY (2013); 57(6):2664-68].
MRSA strain MW2 was serially passaged in triplicate on a daily basis for 21 days using both a 1.1-fold and 2-fold PlySs2 dilution series. As shown in FIGS. 1-3, only modest 2-fold shifts in PlySs2 MIC values were observed. […] This seesaw effect, i.e., a decrease in MRSA's susceptibility to PlySs2 accompanied by a paradoxical increase in susceptibility to oxacillin, indicates PlySs2 lysin's ability to resensitize MRSA to oxacillin. Three MRSA MW2 strain isolates were taken just prior (days 16, 11, and 8 for FIGS. 1-3, respectively) and just after (days 17, 12, and 9 for FIGS. 1-3, respectively) the observed MIC shift for whole genome sequencing.

[3] = non-selective, PlySs2 0.18 mg/kg (n = 24)
[4] = non-selective, PlySs2 0.35 mg/kg (n = 24)
[5] = non-selective, PlySs2 0.7 mg/kg (n = 24)
[6] = non-selective, PlySs2 1.4 mg/kg (n = 24)
[7] = selective conditions, PlySs2 0.18 mg/kg (n = 24)
[8] = selective conditions, PlySs2 0.35 mg/kg (n = 24)
[9] = selective conditions, PlySs2 0.7 mg/kg (n = 24)
[10] = selective conditions, PlySs2 1.4 mg/kg (n = 24)

Molecule: Cc1onc(-c2ccccc2)c1C(=O)N[C@@H]1C(=O)N2[C@@H]1SC(C)(C)[C@@H]2C(=O)O [OXA, oxacillin]
- MIC (S. aureus strain MW2; Staphylococcus aureus, MW2): 32 µg/mL
- MIC ([1]; Staphylococcus aureus, MRSA, read-out: Oxacillin MIC after PlySs2 exposure): < 2 µg/mL
- Reduction in oxacillin MIC values ([1]; isolates after PlySs2 exposure in rabbit IE, selective conditions): greater than 16 fold
- MIC ([2]; Staphylococcus aureus, Control #1 isolate): 64 µg/mL (≈ 159 µM)
- MIC ([2]; Staphylococcus aureus, Control #2 isolate): 32 µg/mL (≈ 79.7 µM)
- MIC ([2]; Staphylococcus aureus, Control #3 isolate): 64 µg/mL (≈ 159 µM)
- MIC ([2]; Staphylococcus aureus, Mutant #1 (hlgCB near, mprF L291I, rlmH K159R, ΔSCCmec)): 1 µg/mL (≈ 2.49 µM)
- MIC ([2]; Staphylococcus aureus, Mutant #2 (hlgCB near, graR I158S, rlmH K159R, ΔSCCmec)): 1 µg/mL (≈ 2.49 µM)
- Decrease in oxacillin MIC ([2]; two mutants from the valvular vegetations): 32 fold
- OXA MIC after shift (MRSA strain MW2; MW2, serial passage in PlySs2, after the shift): 16 µg/mL
- OXA MIC before shift (MRSA strain MW2; MW2, serial passage in PlySs2, before the shift): 64 µg/mL
- OXA MIC fold change (MRSA strain MW2; MW2 after PlySs2 exposure in serial passage): 0.25 fold

B1: PlySs2: bacteriophage lysin derived from Streptococcus suis, amino acid sequence SEQ ID NO: 1 (245 residues) (protein, listed as Streptococcus suis)
chain: MTTVNEALNNVRAQVGSGVSVGNGECYALASWYERMISPDATVGLGAGVGWVSGAIGDTISAKNIGSSYNWQANGWTVSTSGPFKAGQIVTLGATPGNPYGHVVIVEAVDGDRLTILEQNYGGKRYPVRNYYSAASYRQQVVHYITPPGTVAQSAPNLAGSRSYRETGTMTVTVDALNVRRAPNTSGEIVAVYKRGESFDYDTVIIDVNGYVWVSYIGGSGKRNYVATGATKDGKRFGNAWGTFK
- MIC of S. aureus strain MW2 (S. aureus strain MW2): 1 µg/mL
- PlySs2 MIC of recovered isolates ([1]; non-selective conditions, remained stable): 1 µg/mL
- Number of isolates with Oxacillin MIC 32 μg/mL [1, 3]: 16
- Number of isolates with PlySs2 MIC 1 μg/mL [1, 3]: 16
- Number of isolates with Oxacillin MIC 32 μg/mL [1, 4]: 18
- Number of isolates with Oxacillin MIC ≤2 μg/mL [1, 4]: 6
- Number of isolates with PlySs2 MIC 0.5 μg/mL [1, 4]: 3
- Number of isolates with PlySs2 MIC 1 μg/mL [1, 4]: 21
- Number of isolates with Oxacillin MIC 16 μg/mL [1, 5]: 1
- Number of isolates with Oxacillin MIC 32 μg/mL [1, 5]: 23
- Number of isolates with PlySs2 MIC 0.5 μg/mL [1, 5]: 1
- Number of isolates with PlySs2 MIC 1 μg/mL [1, 5]: 23
- Number of isolates with Oxacillin MIC 32 μg/mL [1, 6]: 17
- Number of isolates with Oxacillin MIC ≤2 μg/mL [1, 6]: 7
- Number of isolates with PlySs2 MIC 1 μg/mL ([1]; non-selective, rabbits given PlySs2 1.4 mg/kg (n = 24)): 24
- PlySs2 MIC increase ([1]; selective conditions, isolates after PlySs2 treatment): ≤ 2 fold
- Number of isolates with Oxacillin MIC 32 μg/mL [1, 7]: 16
- Number of isolates with PlySs2 MIC 1 μg/mL [1, 7]: 14
- Number of isolates with PlySs2 MIC 2 μg/mL [1, 7]: 2
- Number of isolates with Oxacillin MIC 32 μg/mL [1, 8]: 17
- Number of isolates with Oxacillin MIC <2 μg/mL [1, 8]: 7
- Number of isolates with PlySs2 MIC 1 μg/mL [1, 8]: 22
- Number of isolates with PlySs2 MIC 2 μg/mL [1, 8]: 2
- Number of isolates with Oxacillin MIC 32 μg/mL [1, 9]: 21
- Number of isolates with PlySs2 MIC 1 μg/mL [1, 9]: 19
- Number of isolates with PlySs2 MIC 2 μg/mL [1, 9]: 3
- Number of isolates with Oxacillin MIC between <2 and 32 μg/mL (4, 8 or 16) ([1]; selective conditions, PlySs2 0.7 mg/kg (n = 24), column not resolvable): 3
- Number of isolates with Oxacillin MIC 32 μg/mL [1, 10]: 21
- Number of isolates with Oxacillin MIC <2 μg/mL [1, 10]: 3
- Number of isolates with PlySs2 MIC 1 μg/mL [1, 10]: 20
- Number of isolates with PlySs2 MIC 2 μg/mL [1, 10]: 4
- PlySs2 MIC of recovered isolates ([1]; selective conditions, remained largely stable): 1 µg/mL
- MIC ([2]; Control #1 isolate): (1 μg/mL)/
- MIC ([2]; Control #2 isolate): (2 μg/mL)/
- MIC ([2]; Control #3 isolate): (2 μg/mL)
- MIC ([2]; Mutant #1 (hlgCB near, mprF L291I, rlmH K159R, ΔSCCmec)): (2 μg/mL)
- MIC ([2]; Mutant #2 (hlgCB near, graR I158S, rlmH K159R, ΔSCCmec)): (1 μg/mL)
- Shift in PlySs2 MIC values (MRSA strain MW2; MW2 passaged daily for 21 days in 1.1-fold and 2-fold PlySs2 dilution series, triplicate): 2 fold
